Laboratory results: article PMC10842940, “Establishment of dsDNA-dsDNA interactions by the condensin complex” (Molecular cell, 2023)

Legend:
[1] = target: T1, Cut14^Smc2 (fission yeast condensin SMC subunit) (S. pombe, UniProt P41003 1-1172); assay: cross-linking; sulfo-SDA cross-link mass spectrometry (CLMS) of the purified five-subunit condensin complex with equimolar 124 bp linear dsDNA, no nucleotide (initial state); CL buffer, 30°C 30 min, UV 365 nm on ice; 1% FDR at residue-pair level; conditions: both partners purified
T1 construct: Cut14 (Smc2), S. pombe condensin SMC subunit; cDNA cloned into an S. cerevisiae expression vector; The Pk tag is used for the condensin immunoprecipitation in the DNA assays; also called Cut14-3xPk; source: S. cerevisiae (w303, pep4 deleted), co-overexpressed with the other four condensin subunits from GAL1-10 promoters; in cell extract, and purified as the complex (IgG-agarose, 3C protease …)
T1 sequence (looked up): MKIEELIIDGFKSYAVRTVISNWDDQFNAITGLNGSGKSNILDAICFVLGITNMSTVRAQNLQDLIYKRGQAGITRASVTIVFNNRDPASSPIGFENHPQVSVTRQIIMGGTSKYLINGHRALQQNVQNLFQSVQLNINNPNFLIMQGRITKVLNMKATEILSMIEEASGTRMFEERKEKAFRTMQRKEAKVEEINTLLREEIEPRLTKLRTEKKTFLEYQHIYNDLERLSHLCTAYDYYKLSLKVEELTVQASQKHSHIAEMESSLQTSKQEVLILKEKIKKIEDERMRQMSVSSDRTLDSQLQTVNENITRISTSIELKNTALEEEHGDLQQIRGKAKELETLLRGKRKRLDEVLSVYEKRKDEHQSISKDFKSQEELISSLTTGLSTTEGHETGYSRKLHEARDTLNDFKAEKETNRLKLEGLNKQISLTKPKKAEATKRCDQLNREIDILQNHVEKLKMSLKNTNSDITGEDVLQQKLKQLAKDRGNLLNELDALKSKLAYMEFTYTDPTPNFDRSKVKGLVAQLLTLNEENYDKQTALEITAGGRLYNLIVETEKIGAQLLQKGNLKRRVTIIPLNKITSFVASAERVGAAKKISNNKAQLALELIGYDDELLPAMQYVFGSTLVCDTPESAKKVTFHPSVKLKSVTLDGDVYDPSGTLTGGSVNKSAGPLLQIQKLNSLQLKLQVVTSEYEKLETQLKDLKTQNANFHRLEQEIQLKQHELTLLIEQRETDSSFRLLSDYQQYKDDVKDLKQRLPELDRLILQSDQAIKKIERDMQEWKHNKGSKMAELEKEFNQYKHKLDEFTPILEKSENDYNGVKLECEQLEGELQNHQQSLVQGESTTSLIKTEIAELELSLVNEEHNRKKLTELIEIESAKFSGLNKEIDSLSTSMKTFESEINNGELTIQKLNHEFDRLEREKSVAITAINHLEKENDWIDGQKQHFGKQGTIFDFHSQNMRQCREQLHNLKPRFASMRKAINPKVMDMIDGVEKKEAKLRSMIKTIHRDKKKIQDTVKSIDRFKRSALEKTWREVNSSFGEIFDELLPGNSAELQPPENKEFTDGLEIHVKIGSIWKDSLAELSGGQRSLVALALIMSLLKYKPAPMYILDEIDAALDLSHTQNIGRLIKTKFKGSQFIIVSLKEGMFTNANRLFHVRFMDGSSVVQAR

[2] = target: T2, Cnd1^Ycs4 (fission yeast condensin HEAT-repeat subunit) (S. pombe, UniProt O94679 1-1158); assay: cross-linking; sulfo-SDA cross-link mass spectrometry (CLMS) of the purified five-subunit condensin complex with equimolar 124 bp linear dsDNA and 0.5 mM ADP·BeF3 (DNA-gripping state); CL buffer, 30°C 30 min, UV 365 nm on ice; 1% FDR at residue-pair level; conditions: both partners purified
T2 construct: Cnd1 (Ycs4), S. pombe condensin HEAT-repeat subunit; cDNA cloned into an S. cerevisiae expression vector; source: S. cerevisiae (w303, pep4 deleted), co-overexpressed with the other four condensin subunits from GAL1-10 promoters; in cell extract, and purified as the complex (IgG-agarose, 3C protease elution, heparin, Superose 6)
T2 sequence (looked up): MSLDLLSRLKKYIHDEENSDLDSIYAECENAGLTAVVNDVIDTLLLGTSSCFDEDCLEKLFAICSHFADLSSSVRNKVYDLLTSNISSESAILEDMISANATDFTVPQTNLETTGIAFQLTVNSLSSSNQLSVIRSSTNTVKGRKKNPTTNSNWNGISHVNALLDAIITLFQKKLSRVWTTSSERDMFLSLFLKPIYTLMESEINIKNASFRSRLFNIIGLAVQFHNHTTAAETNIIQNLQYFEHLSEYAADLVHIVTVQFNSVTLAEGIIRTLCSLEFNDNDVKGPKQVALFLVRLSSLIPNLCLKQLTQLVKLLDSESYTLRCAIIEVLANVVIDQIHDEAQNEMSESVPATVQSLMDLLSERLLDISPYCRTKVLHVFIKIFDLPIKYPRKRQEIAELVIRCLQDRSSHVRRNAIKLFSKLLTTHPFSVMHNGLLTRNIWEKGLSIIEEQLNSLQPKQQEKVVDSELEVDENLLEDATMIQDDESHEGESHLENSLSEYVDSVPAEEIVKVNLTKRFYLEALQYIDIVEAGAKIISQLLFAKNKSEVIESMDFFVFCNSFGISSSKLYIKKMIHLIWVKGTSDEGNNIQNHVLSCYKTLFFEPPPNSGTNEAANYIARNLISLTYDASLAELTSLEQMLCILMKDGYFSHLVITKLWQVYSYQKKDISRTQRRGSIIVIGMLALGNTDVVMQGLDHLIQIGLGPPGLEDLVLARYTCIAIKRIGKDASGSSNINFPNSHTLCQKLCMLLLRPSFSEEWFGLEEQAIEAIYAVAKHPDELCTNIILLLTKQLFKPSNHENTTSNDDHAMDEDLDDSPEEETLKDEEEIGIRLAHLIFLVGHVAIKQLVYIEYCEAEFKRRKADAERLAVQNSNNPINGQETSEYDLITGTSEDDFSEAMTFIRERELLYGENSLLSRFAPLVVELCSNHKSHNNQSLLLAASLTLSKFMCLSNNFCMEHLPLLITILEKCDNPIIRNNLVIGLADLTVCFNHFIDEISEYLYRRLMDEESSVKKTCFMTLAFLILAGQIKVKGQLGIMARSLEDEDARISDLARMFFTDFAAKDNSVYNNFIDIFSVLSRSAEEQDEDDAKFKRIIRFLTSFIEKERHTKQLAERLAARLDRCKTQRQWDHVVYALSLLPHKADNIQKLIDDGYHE

B1: Cnd3^Ycg1 (fission yeast condensin HEAT-repeat subunit) (natural protein, S. pombe, UniProt Q10429 1-875, looked up)
chain: MSCIQIISSSQTSIAGHRKLCNKLFTLRTQEGFETDILRALNIILTVKKGNSNADRVLRFLVTFVNYLQQKDPEIDIVQPILKHILRGLDAKDKTVRYRCCQIIARVVNCVKEIDDDLYNTLKEKLLSRVLDRESIVRLEAVVALSRLQEDTGDEENDVRNILLFLLQNDPSSEVRRSVLLNIEVSNSTLPFILERARDVDAANRKCVYARVLPKIGDFRYLSIKKRVRILKWGLNDRDESVEKAAADMLAYQWIENADNNLLELLERLDVSNNSDVAVLAIKKFFDVRVDSLSQLEFPEQFWLELTAESSLLARTFNEICIEKNYTDLLDKMPEVVQLTYYIERQYVSLRDKSSYDESCFIIEQLLYIGLSQDMVDEIGRRKLLKSLTNSLSTMALPDSLISLHIELLRKLCSSENDFCSLLVEIITEVFEQGHSQNQTEEQGNSNAPELNKNDYEGEEITVSQKSPSPSLPPNELNEPEPDDMDGYKEAFNELRCLSYVQCLFENITSSLNENLYMVDMLKTLIIPAVRSHDLPIREKGLECLSLVCLLNADLAFENVPLYLHCYEKGSVVLKCTAIRTLTDMLIQHGKAKFTEYEDAISSILFEALGEFENAELQTLGAEAIAKLLVILHYRDELFLKPLIIQYFEPNTVDNHALRQVLGYFFPVYAFGAHENQWRIATIFCDALLSLLEIYRDLDEDDVQLSIGHIAQQMLDWTDNEKLYERKTQTGDDYIALNHNVHLHLANMIFESLPNASEGKERKFMISLLGKLKIPTDLPSSDYQRTKRKLETYESHGFTMDSTSLSILAKFERMLLQNEEARSKFEETEEERLMENAEENEHAGAEAISGEIIPDTVEANMEDEEEVYVKQEEDL
notes: Cnd3 (Ycg1), S. pombe condensin HEAT-repeat subunit; cDNA cloned into an S. cerevisiae expression vector; also called Cnd3^CAP-G; source: S. cerevisiae (w303, pep4 deleted), co-overexpressed with the other four condensin subunits from GAL1-10 promoters; in cell extract, and purified as the complex (IgG-agarose, 3C protease elution, heparin, Superose 6)
binding result [1]: binds
binding result [2]: binds
